Experimental data: US20120244226A1, “TREATMENT COMPOSITION AND METHOD” (DEC INTERNATIONAL NZ LIMITED, priority 2009, published 2012)

Key:
[1] = WO 2008/009798, cited from earlier work
[2] = test system: tumor necrosis factor-α (TNF-α) produced by LPS activated neutrophils; assay: TNF-α production by LPS activated neutrophils (ELISA); type: cell-based, rat; settings: for TNF-α % Inhibition: relative to LPS only control
Procedure: (§1) The anti-inflammatory properties of the cationic fraction, IDP, and the combination of IDP with chondroitin and glucosamine were determined by measuring their ability to inhibit the production of the inflammatory compounds, tumor necrosis factor-α (TNF-α) and interleukin-6 (IL-6) produced by LPS activated neutrophils. […] Neutrophils were isolated from rat blood and incubated in the presence of LPS. LPS is derived from bacterial cell walls and is used to mimic a 'bacterial infection'. […] Two of these cytokine are TNF-α and IL-6. The concentrations of both cytokines produced by neutrophils exposed to LPS and the various test substances are summarised graphically in FIGS. 1 and 2 respectively. […] Aliquots from each set of triplicates were combined, and duplicates assayed for cytokine concentrations. The plate blank was subtracted from each individual data point. A VersaMax 96-well plate reader was used to colorimetrically assess the production of TNF-α and IL-6 as determined by the ELISA, using Rat TNF-α ELISA kit, R&D Systems, Cat # RTA00, and Rat IL-6 ELISA kit, R&D Systems, Cat # […]. The average cytokine concentration, standard deviation and standard error were calculated for each data set (sample and concentration). Preliminary statistical significance was assessed using independent Student t-tests at α≦0.05.

[3] = test system: interleukin-6 (IL-6) produced by LPS activated neutrophils; assay: IL-6 production by LPS activated neutrophils (ELISA); type: cell-based, rat; settings: for IL-6 % Inhibition: relative to LPS only control
Procedure: as §1

B1: pure lactoferrin (90%): composition 1 of WO 2008/009798: pure lactoferrin (90%) (protein, UniProt P24627 20-708, looked up)
Lactotransferrin: APRKNVRWCTISQPEWFKCRRWQWRMKKLGAPSITCVRRAFALECIRAIAEKKADAVTLDGGMVFEAGRDPYKLRPVAAEIYGTKESPQTHYYAVAVVKKGSNFQLDQLQGRKSCHTGLGRSAGWIIPMGILRPYLSWTESLEPLQGAVAKFFSASCVPCIDRQAYPNLCQLCKGEGENQCACSSREPYFGYSGAFKCLQDGAGDVAFVKETTVFENLPEKADRDQYELLCLNNSRAPVDAFKECHLAQVPSHAVVARSVDGKEDLIWKLLSKAQEKFGKNKSRSFQLFGSPPGQRDLLFKDSALGFLRIPSKVDSALYLGSRYLTTLKNLRETAEEVKARYTRVVWCAVGPEEQKKCQQWSQQSGQNVTCATASTTDDCIVLVLKGEADALNLDGGYIYTAGKCGLVPVLAENRKSSKHSSLDCVLRPTEGYLAVAVVKKANEGLTWNSLKDKKSCHTAVDRTAGWNIPMGLIVNQTGSCAFDEFFSQSCAPGADPKSRLCALCAGDDQGLDKCVPNSKEKYYGYTGAFRCLAEDVGDVAFVKNDTVWENTNGESTADWAKNLNREDFRLLCLDGTRKPVTEAQSCHLAVAPNHAVVSRSDRAAHVKQVLLHQQALFGKNGKNCPDKFCLFKSETKNLLFNDNTECLAKLGGRPTYEEYLGTEYVTAIANLKKCSTSPLLEACAFLTR
modifications: 90% pure preparation
In the case of B1, the “anti-inflammatory activity of the composition on its own” value [1] is listed as “Neither of these compositions showed significant anti-inflammatory activity” and the “anti-inflammatory activity compared with glucosamine and chondroitin sulphate alone” value ([1]; combined with glucosamine and chondroitin sulphate) is listed as “significantly better”.

B2: Lactoferrin: milk immune defence protein (P24627), tested on its own (protein, UniProt P24627 20-708, looked up)
Lactotransferrin: B1 Lactotransferrin
With B2 the “TNF-α” value ([2]; 1 μg/ml) was 226.19 pg/mL, the “TNF-α % Inhibition” value ([2]; 1 μg/ml) was 17.9% and the “TNF-α” value ([2]; 10 μg/ml) was 242.58 pg/mL. The “TNF-α % Inhibition” value ([2]; 10 μg/ml) was 11.9%, the “TNF-α” value ([2]; 100 μg/ml) was 325.95 pg/mL and the “TNF-α % Inhibition” value ([2]; 100 μg/ml) was −18.4%. For the same molecule, the “stimulation of TNF-α levels” value ([2]; highest concentration tested) was 18%, the “effect on TNF-α, in words” value ([2]; lowest concentrations tested) was “no statistically significant effect” and the “effect on TNF-α, in words” value ([2]; over the concentrations tested) was “appeared not to act as anti-inflammatory”. For the same molecule, the “IL-6” value ([3]; 1 μg/ml) was 197.88 pg/mL, the “IL-6 % Inhibition” value ([3]; 1 μg/ml) was 33.3% and the “IL-6” value ([3]; 10 μg/ml) was 269.86 pg/mL. The “IL-6 % Inhibition” value ([3]; 10 μg/ml) was 9.1%, the “IL-6” value ([3]; 100 μg/ml) was 441.09 pg/mL and the “IL-6 % Inhibition” value ([3]; 100 μg/ml) was −48.6%. For the same molecule, the “stimulation of IL-6 levels” value ([3]; highest concentration tested) was 48%, the “effect on IL-6, in words” value ([3]; lowest concentrations tested) was “no statistically significant effect” and the “effect on IL-6, in words” value ([3]; over the concentrations tested) was “appeared not to act as anti-inflammatory”.
